# Source: the supplement of paper PMC9112550, “Optimization of the antimicrobial peptide Bac7 by deep mutational scanning” (BMC Biology, 2022)
# System: Escherichia coli TOP10
# Experiment: shrunken log2 fold change of peptide-encoding DNA abundance (4.5 h post-induction vs induction); higher = less antimicrobial activity (less host growth inhibition)
# Details: time post-induction: 4.5 h; library: site-saturation at positions 5, 18, 19, 20
# 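Note: peptides expressed intracellularly from a pBAD plasmid library in pooled LB shake-flask culture, induced with 0.3% L-arabinose, DNA abundance read by NGS, three biological replicates, DESeq2 with apeglm shrinkage.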
row,Sequence,shrunken log2 fold change
1,RRIRTRPPRLPRPRPRPDHGPRP,-0.0102
2,RRIRFRPPRLPRPRPRPMYLPRP,-0.376
3,RRIRIRPPRLPRPRPRPQEIPRP,-0.581
4,RRIRGRPPRLPRPRPRPHHEPRP,0.325
5,RRIRARPPRLPRPRPRPRMGPRP,0.692
6,RRIRPRPPRLPRPRPRPLREPRP,0.783
7,RRIRRRPPRLPRPRPRPIWIPRP,-0.32
8,RRIRNRPPRLPRPRPRPMNSPRP,-0.148
9,RRIRYRPPRLPRPRPRPWLIPRP,-0.204
10,RRIRERPPRLPRPRPRPIQMPRP,-0.14
11,RRIRVRPPRLPRPRPRPTSGPRP,0.0674
12,RRIRTRPPRLPRPRPRPRQYPRP,-0.302
13,RRIRNRPPRLPRPRPRPALGPRP,-0.361
14,RRIRCRPPRLPRPRPRPYDIPRP,0.0852
15,RRIRDRPPRLPRPRPRPTVHPRP,0.231
16,RRIRDRPPRLPRPRPRPDWMPRP,0.0771
17,RRIRHRPPRLPRPRPRPEGAPRP,0.686
18,RRIRYRPPRLPRPRPRPSYIPRP,-1.4
19,RRIRRRPPRLPRPRPRPMVVPRP,0.00307
20,RRIRHRPPRLPRPRPRPFMAPRP,-0.548
21,RRIRMRPPRLPRPRPRPAANPRP,-0.00188
22,RRIRERPPRLPRPRPRPFCIPRP,-0.346
23,RRIRRRPPRLPRPRPRPTVIPRP,-0.168
24,RRIRLRPPRLPRPRPRPPWIPRP,-0.35
25,RRIRFRPPRLPRPRPRPTITPRP,-0.513

row,Sequence,shrunken log2 fold change
1,RRIRDRPPRLPRPRPRPILSPRP,-0.216
2,RRIRWRPPRLPRPRPRPPDEPRP,0.654
3,RRIRIRPPRLPRPRPRPWWGPRP,0.0378
4,RRIRFRPPRLPRPRPRPTSCPRP,-0.0685
5,RRIRRRPPRLPRPRPRPSCQPRP,-0.0699
6,RRIRTRPPRLPRPRPRPMKHPRP,-0.00108
7,RRIRTRPPRLPRPRPRPDFVPRP,-0.106
8,RRIRDRPPRLPRPRPRPKWPPRP,0.466
9,RRIRERPPRLPRPRPRPMRDPRP,0.365
10,RRIRERPPRLPRPRPRPQRQPRP,0.0791
11,RRIRDRPPRLPRPRPRPMEFPRP,-0.0018
12,RRIRWRPPRLPRPRPRPIGNPRP,0.137
13,RRIRDRPPRLPRPRPRPSNMPRP,-0.0872
14,RRIRKRPPRLPRPRPRPGDYPRP,0.559
15,RRIRTRPPRLPRPRPRPKPMPRP,0.0287
16,RRIRHRPPRLPRPRPRPMSEPRP,0.0594
17,RRIRFRPPRLPRPRPRPHTHPRP,-0.618
18,RRIRSRPPRLPRPRPRPLAIPRP,-0.0883
19,RRIRCRPPRLPRPRPRPRMDPRP,-0.0539
20,RRIRGRPPRLPRPRPRPGIPPRP,0.351
21,RRIRFRPPRLPRPRPRPGRSPRP,0.183
22,RRIRRRPPRLPRPRPRPEHNPRP,0.183
23,RRIRGRPPRLPRPRPRPSCAPRP,1.08
24,RRIRMRPPRLPRPRPRPFRPPRP,-0.16
25,RRIRMRPPRLPRPRPRPYIFPRP,-0.265

row,Sequence,shrunken log2 fold change
1,RRIRWRPPRLPRPRPRPMVFPRP,0.274
2,RRIRNRPPRLPRPRPRPDPYPRP,-0.319
3,RRIRGRPPRLPRPRPRPMTHPRP,0.708
4,RRIRCRPPRLPRPRPRPIVTPRP,0.0598
5,RRIRHRPPRLPRPRPRPPLEPRP,0.223
6,RRIRVRPPRLPRPRPRPYKQPRP,-0.00648
7,RRIRMRPPRLPRPRPRPSDIPRP,-0.192
8,RRIRLRPPRLPRPRPRPVYAPRP,0.00563
9,RRIRHRPPRLPRPRPRPCGFPRP,0.134
10,RRIRDRPPRLPRPRPRPWDVPRP,-0.00145
11,RRIRLRPPRLPRPRPRPLFEPRP,1.33
12,RRIRIRPPRLPRPRPRPYWWPRP,-0.259
13,RRIRMRPPRLPRPRPRPHFVPRP,-0.025
14,RRIRCRPPRLPRPRPRPSYRPRP,-0.242
15,RRIRTRPPRLPRPRPRPQCSPRP,0.0299
16,RRIRLRPPRLPRPRPRPQHMPRP,-0.767
17,RRIRVRPPRLPRPRPRPFNKPRP,0.791
18,RRIRARPPRLPRPRPRPCYGPRP,-0.246
19,RRIRGRPPRLPRPRPRPMPQPRP,0.255
20,RRIRYRPPRLPRPRPRPVEAPRP,-0.35
21,RRIRRRPPRLPRPRPRPIHNPRP,-0.329
22,RRIRHRPPRLPRPRPRPMFWPRP,0.0114
23,RRIRKRPPRLPRPRPRPWCVPRP,-0.00029
24,RRIRVRPPRLPRPRPRPHHVPRP,-0.261
25,RRIRIRPPRLPRPRPRPICCPRP,-0.107

row,Sequence,shrunken log2 fold change
1,RRIRNRPPRLPRPRPRPAPSPRP,0.271
2,RRIRPRPPRLPRPRPRPQKHPRP,0.865
3,RRIRHRPPRLPRPRPRPQQGPRP,-0.14
4,RRIRWRPPRLPRPRPRPFPGPRP,-0.0199
5,RRIRDRPPRLPRPRPRPILHPRP,-0.0215
6,RRIRMRPPRLPRPRPRPLPSPRP,0.942
7,RRIRPRPPRLPRPRPRPQYCPRP,-0.106
8,RRIRGRPPRLPRPRPRPSMSPRP,0.453
9,RRIRPRPPRLPRPRPRPQSQPRP,-0.00349
10,RRIRRRPPRLPRPRPRPSIQPRP,-0.0217
11,RRIRRRPPRLPRPRPRPTMAPRP,0.392
12,RRIRGRPPRLPRPRPRPRDAPRP,1.21
13,RRIRHRPPRLPRPRPRPWVHPRP,-0.179
14,RRIRCRPPRLPRPRPRPNMAPRP,-0.614
15,RRIRKRPPRLPRPRPRPISQPRP,0.113
16,RRIRERPPRLPRPRPRPKIEPRP,-0.151
17,RRIRKRPPRLPRPRPRPACYPRP,0.13
18,RRIRWRPPRLPRPRPRPIHFPRP,-0.357
19,RRIRHRPPRLPRPRPRPITRPRP,-0.0356
20,RRIRHRPPRLPRPRPRPVDPPRP,-0.0989
21,RRIRMRPPRLPRPRPRPWDAPRP,0.228
22,RRIRERPPRLPRPRPRPDSMPRP,-0.076
23,RRIRSRPPRLPRPRPRPKSVPRP,-0.0236
24,RRIRWRPPRLPRPRPRPENKPRP,-0.13
25,RRIRSRPPRLPRPRPRPQFCPRP,-0.16

row,Sequence,shrunken log2 fold change
1,RRIRERPPRLPRPRPRPYQQPRP,-0.228
2,RRIRRRPPRLPRPRPRPKGTPRP,0.25
3,RRIRNRPPRLPRPRPRPFGGPRP,-0.133
4,RRIRDRPPRLPRPRPRPAERPRP,-0.0412
5,RRIRERPPRLPRPRPRPSQKPRP,0.0497
6,RRIRLRPPRLPRPRPRPWPIPRP,0.0461
7,RRIRFRPPRLPRPRPRPMMCPRP,-0.139
8,RRIRERPPRLPRPRPRPFHTPRP,-0.0574
9,RRIRSRPPRLPRPRPRPGCMPRP,0.0917
10,RRIRLRPPRLPRPRPRPNQMPRP,-0.437
11,RRIRTRPPRLPRPRPRPGWCPRP,1.42
12,RRIRPRPPRLPRPRPRPYEHPRP,-0.408
13,RRIRYRPPRLPRPRPRPVKRPRP,-0.00146
14,RRIRTRPPRLPRPRPRPVPVPRP,0.0547
15,RRIRKRPPRLPRPRPRPVWLPRP,0.192
16,RRIRIRPPRLPRPRPRPNALPRP,-0.245
17,RRIRLRPPRLPRPRPRPDTYPRP,-0.93
18,RRIRKRPPRLPRPRPRPRQMPRP,0.0035
19,RRIRARPPRLPRPRPRPQNTPRP,-0.286
20,RRIRDRPPRLPRPRPRPQFCPRP,-0.137
21,RRIRFRPPRLPRPRPRPMHQPRP,-0.0493
22,RRIRQRPPRLPRPRPRPVVYPRP,0.12
23,RRIRLRPPRLPRPRPRPLVFPRP,-0.186
24,RRIRDRPPRLPRPRPRPLCGPRP,0.32
25,RRIRVRPPRLPRPRPRPNTVPRP,-0.0689

row,Sequence,shrunken log2 fold change
1,RRIRSRPPRLPRPRPRPDKQPRP,-0.0566
2,RRIRFRPPRLPRPRPRPKAIPRP,-0.0919
3,RRIRERPPRLPRPRPRPSKWPRP,-0.241
4,RRIRSRPPRLPRPRPRPMYKPRP,-1.13
5,RRIRYRPPRLPRPRPRPTRGPRP,0.543
6,RRIRMRPPRLPRPRPRPVVCPRP,0.125
7,RRIRKRPPRLPRPRPRPYYGPRP,-0.101
8,RRIRIRPPRLPRPRPRPPYDPRP,-0.814
9,RRIRQRPPRLPRPRPRPNCIPRP,0.133
10,RRIRWRPPRLPRPRPRPIRRPRP,-0.00924
11,RRIRQRPPRLPRPRPRPKIFPRP,0.041
12,RRIRDRPPRLPRPRPRPWIMPRP,-0.0114
13,RRIRERPPRLPRPRPRPCQEPRP,-0.181
14,RRIRFRPPRLPRPRPRPCDPPRP,-0.0886
15,RRIRNRPPRLPRPRPRPQAHPRP,-0.163
16,RRIRSRPPRLPRPRPRPYHCPRP,-0.255
17,RRIRFRPPRLPRPRPRPPQDPRP,0.303
18,RRIRCRPPRLPRPRPRPNPLPRP,-0.131
19,RRIRTRPPRLPRPRPRPGYSPRP,1.78
20,RRIRTRPPRLPRPRPRPTSSPRP,0.113
21,RRIRSRPPRLPRPRPRPYVMPRP,-0.653
22,RRIRSRPPRLPRPRPRPFATPRP,0.461
23,RRIRPRPPRLPRPRPRPEQHPRP,0.214
24,RRIRARPPRLPRPRPRPLRPPRP,1.08
25,RRIRTRPPRLPRPRPRPYKYPRP,-1.14
